# Key:
# [1] = Ex vivo organ distribution in B16F10 tumor-bearing mice; design: species or system C57BL/6 mice; settings: mouse, iv
# Protocol: (§1) To accomplish post-imaging organ distribution investigations, 9.36 ± 0.67, 6.34 ± 1.07 and 2.39 ± 0.19 MBq of ^68Ga-labeled-^177Lu-labeled-and ^205/206Bi-labeled […]-based probes were iv. Injected, respectively, into the lateral tail vein of both the tumor-naive and the melanoma tumor-carrying experimental mice. Ninety-minutes ([^68Ga]Ga-DOTA-[…]-DOTA-[…]; [^205/206Bi]Bi-DOTA-[…]; [^205/206Bi]Bi-DOTA-[…]) and 24 h ([^177Lu]Lu-DOTA-[…]; [^177Lu]Lu-DOTA-[…]) post tracer administration, mice were sacrificed under Forane-induced inhalation anesthesia. Then, the tumor, the blood, and selected organs and tissues were removed, weighed wet and measured for radioactivity applying a calibrated gamma counter (Perkin-Elmer Packard 406 Cobra, Waltham, MA, USA). The counts per minute (CPM) figures for each sample were converted to percent of administered dose per gram of tissue (%ID/g).
# [2] = in vivo; design: species or system C57BL/6 mice; settings: C57BL/6, mouse, iv, total radioactivity
# Protocol: At 9 ± 1 days post tumor implantation, at an average tumor bulk of approximately 120 mm^3, the tumor-naive and the B16F10 tumor-bearing mice were intravenously (iv.) injected with 9.36 ± 0.67 MBq of [^68Ga]Ga-DOTA-NAPamide or [^68Ga]Ga-DOTA-IPB-NAPamide via the lateral tail vein. After a 90-min-long tracer distribution time, the study mice were subjected to whole-body static PET acquisition (10 min scans at each bed position) under isoflurane-induced anesthesia (AbbVie, Budapest, Hungary; OGYI-T-1414/01) applying a preclinical MiniPET-II small animal PET device (Division of Nuclear Medicine and Translational Imaging, Department of Medical Imaging, Faculty of Medicine, University of Debrecen).
# Three-dimensional ordered-subsets expectation-maximization algorithm (3D OSEM) was used for PET image reconstruction. Three-dimensional ellipsoidal volume of interests (VOI) were manually placed around the border of the organ/tissue activity to calculate their radiotracer concentration. The radiopharmaceutical accumulation was presented as standardized uptake values (SUVs). The following formula was applied for the determination of the SUV parameter:SUV (g/mL) = [VOI activity (Bq/mL)]/[administered activity (Bq)/animal weight (g)]
# [3] = assay type: physicochemical
# Protocol: After the dilution of the purified radiotracers ([^68Ga]Ga-DOTA-[…]-DOTA-[…], [^205/206Bi]Bi-DOTA-[…], [^205/206Bi]Bi-DOTA-[…], [^177Lu]Lu-DOTA-[…], [^177Lu]Lu-DOTA-[…]) (50 μL, 1-3 MBq) with 450 μL water, 500 μL n-octanol was added to each sample. […] The activity of the samples from n-octanol phase (20 μL) and aqueous phase (20 μL) was analyzed with gamma counter. The procedure was performed in triplicate. For [^68Ga]Ga-DOTA-[…]-DOTA-[…], [^205/206Bi]Bi-DOTA-[…], [^205/206Bi]Bi-DOTA-[…], [^177Lu]Lu-DOTA-[…], and for [^177Lu]Lu-DOTA-[…] the logP values were -3.46, -2.12, -3.65, -2.32, -2.6, 1.26, respectively.
# [4] = tested on: B16F10 tumor-bearing mice; test: Ex vivo organ distribution in B16F10 tumor-bearing mice; design: species or system C57BL/6 mice; settings: mouse, iv
# Protocol: as §1
smiles,measurement,setting,value
"CCCC[C@H](NC(C)=O)C(=O)N[C@@H](CC(=O)O)C(=O)N[C@@H](Cc1c[nH]cn1)C(=O)N[C@H](Cc1ccccc1)C(=O)N[C@@H](CCCNC(=N)N)C(=O)N[C@@H](Cc1c[nH]c2ccccc12)C(=O)NCC(=O)N[C@@H](CCCCNC(=O)[C@H](CCCCNC(=O)CCCc1ccc(I)cc1)NC(=O)CN1CCN(CC(=O)O)CCN(CC(=O)O)CCN(CC(=O)O)CC1)C(N)=O [[^177Lu]Lu-DOTA-IPB-NAPamide, metal not drawn]",tissue uptake at 24 h,[1]; B16-F10 tumor uptake,4.16 ± 1.86 %ID/g
same,tissue uptake at 24 h,[1]; blood uptake,3.71 ± 0.73 %ID/g
same,tissue uptake at 24 h,[1]; brain uptake,0.08 ± 0.01 %ID/g
same,tissue uptake at 24 h,[1]; fat uptake,0.67 ± 0.34 %ID/g
same,tissue uptake at 24 h,[1]; heart uptake,1.3 ± 0.12 %ID/g
same,tissue uptake at 24 h,[1]; kidney uptake,5.58 ± 1.59 %ID/g
same,tissue uptake at 24 h,[1]; large intestine uptake,0.61 ± 0.11 %ID/g
same,tissue uptake at 24 h,[1]; liver uptake,1.97 ± 0.13 %ID/g
same,tissue uptake at 24 h,[1]; lung uptake,2.5 ± 0.24 %ID/g
same,tissue uptake at 24 h,[1]; muscle uptake,0.33 ± 0.07 %ID/g
same,tissue uptake at 24 h,[1]; small intestine uptake,0.6 ± 0.03 %ID/g
same,tissue uptake at 24 h,[1]; spleen uptake,1.32 ± 0.2 %ID/g
same,tissue uptake at 24 h,[1]; stomach uptake,0.69 ± 0.11 %ID/g
"CCCC[C@H](NC(C)=O)C(=O)N[C@@H](CC(=O)O)C(=O)N[C@@H](Cc1c[nH]cn1)C(=O)N[C@H](Cc1ccccc1)C(=O)N[C@@H](CCCNC(=N)N)C(=O)N[C@@H](Cc1c[nH]c2ccccc12)C(=O)NCC(=O)N[C@@H](CCCCNC(=O)CN1CCN(CC(=O)O)CCN(CC(=O)O)CCN(CC(=O)O)CC1)C(N)=O [[^177Lu]Lu-DOTA-NAPamide, metal not drawn, reference compound]",tissue uptake at 24 h,[1]; B16-F10 tumor uptake,0.16 ± 0.15 %ID/g
same,tissue uptake at 24 h,[1]; fat uptake,0.01 ± 0.01 %ID/g
same,tissue uptake at 24 h,[1]; heart uptake,0.01 %ID/g
same,tissue uptake at 24 h,[1]; kidney uptake,1.85 ± 0.79 %ID/g
same,tissue uptake at 24 h,[1]; liver uptake,0.24 ± 0.13 %ID/g
same,tissue uptake at 24 h,[1]; lung uptake,0.04 ± 0.03 %ID/g
same,tissue uptake at 24 h,[1]; small intestine uptake,0.01 ± 0.01 %ID/g
same,tissue uptake at 24 h,[1]; spleen uptake,0.07 ± 0.04 %ID/g
"CCCC[C@H](NC(C)=O)C(=O)N[C@@H](CC(=O)O)C(=O)N[C@@H](Cc1c[nH]cn1)C(=O)N[C@H](Cc1ccccc1)C(=O)N[C@@H](CCCNC(=N)N)C(=O)N[C@@H](Cc1c[nH]c2ccccc12)C(=O)NCC(=O)N[C@@H](CCCCNC(=O)CN1CCN(CC(=O)O)CCN(CC(=O)O)CCN(CC(=O)O)CC1)C(N)=O [[^68Ga]Ga-DOTA-NAPamide, metal not drawn, reference compound]",tissue uptake at 1.5 h,[1]; blood uptake,0.35 ± 0.1 %ID/g
same,tissue uptake at 1.5 h,[1]; brain uptake,0.03 ± 0.01 %ID/g
same,tissue uptake at 1.5 h,[1]; heart uptake,0.1 ± 0.06 %ID/g
same,tissue uptake at 1.5 h,[1]; large intestine uptake,0.3 ± 0.01 %ID/g
same,tissue uptake at 1.5 h,[1]; lung uptake,0.33 ± 0.06 %ID/g
same,tissue uptake at 1.5 h,[1]; muscle uptake,0.08 ± 0.02 %ID/g
same,tissue uptake at 1.5 h,[1]; small intestine uptake,0.35 ± 0.13 %ID/g
same,tissue uptake at 1.5 h,[1]; stomach uptake,0.24 ± 0.09 %ID/g
same,SUV at 1.5 h,[2],0.43 ± 0.09 SUV
"CCCC[C@H](NC(C)=O)C(=O)N[C@@H](CC(=O)O)C(=O)N[C@@H](Cc1c[nH]cn1)C(=O)N[C@H](Cc1ccccc1)C(=O)N[C@@H](CCCNC(=N)N)C(=O)N[C@@H](Cc1c[nH]c2ccccc12)C(=O)NCC(=O)N[C@@H](CCCCNC(=O)[C@H](CCCCNC(=O)CCCc1ccc(I)cc1)NC(=O)CN1CCN(CC(=O)O)CCN(CC(=O)O)CCN(CC(=O)O)CC1)C(N)=O [[^68Ga]Ga-DOTA-IPB-NAPamide, metal not drawn]",tissue uptake at 1.5 h,[1]; B16-F10 tumor uptake,5.06 ± 1.08 %ID/g
same,tissue uptake at 1.5 h,[1]; blood uptake,14.2 ± 1.87 %ID/g
same,tissue uptake at 1.5 h,[1]; brain uptake,0.28 ± 0.02 %ID/g
same,tissue uptake at 1.5 h,[1]; fat uptake,2.02 ± 0.65 %ID/g
same,tissue uptake at 1.5 h,[1]; heart uptake,5.14 ± 0.72 %ID/g
same,tissue uptake at 1.5 h,[1]; kidney uptake,4.57 ± 0.88 %ID/g
same,tissue uptake at 1.5 h,[1]; large intestine uptake,0.92 ± 1.25 %ID/g
same,tissue uptake at 1.5 h,[1]; liver uptake,2.64 ± 0.11 %ID/g
same,tissue uptake at 1.5 h,[1]; lung uptake,6.32 ± 0.91 %ID/g
same,tissue uptake at 1.5 h,[1]; muscle uptake,1.01 ± 0.18 %ID/g
same,tissue uptake at 1.5 h,[1]; small intestine uptake,2.41 ± 0.03 %ID/g
same,tissue uptake at 1.5 h,[1]; spleen uptake,2.37 ± 0.25 %ID/g
same,tissue uptake at 1.5 h,[1]; stomach uptake,2.97 ± 1.38 %ID/g
same,SUV at 1.5 h,[2],1.31 ± 0.24 SUV
"CCCC[C@H](NC(C)=O)C(=O)N[C@@H](CC(=O)O)C(=O)N[C@@H](Cc1c[nH]cn1)C(=O)N[C@H](Cc1ccccc1)C(=O)N[C@@H](CCCNC(=N)N)C(=O)N[C@@H](Cc1c[nH]c2ccccc12)C(=O)NCC(=O)N[C@@H](CCCCNC(=O)CN1CCN(CC(=O)O)CCN(CC(=O)O)CCN(CC(=O)O)CC1)C(N)=O [[^177Lu]Lu-DOTA-NAPamide] [metal not drawn, reference compound]",logP,[3],−2.6
same,brain uptake,[4]; 24 h,0.00 ± 0.00 %ID/g
same,muscle uptake,[4]; 24 h,0.00 ± 0.00 %ID/g
"CCCC[C@H](NC(C)=O)C(=O)N[C@@H](CC(=O)O)C(=O)N[C@@H](Cc1c[nH]cn1)C(=O)N[C@H](Cc1ccccc1)C(=O)N[C@@H](CCCNC(=N)N)C(=O)N[C@@H](Cc1c[nH]c2ccccc12)C(=O)NCC(=O)N[C@@H](CCCCNC(=O)CN1CCN(CC(=O)O)CCN(CC(=O)O)CCN(CC(=O)O)CC1)C(N)=O [[^68Ga]Ga-DOTA-NAPamide] [metal not drawn, reference compound]",logP,[3],−3.46
same,B16-F10 tumor uptake,[4]; 1.5 h,1.18 ± 0.27 %ID/g
same,fat uptake,[4]; 1.5 h,0.16 ± 0.03 %ID/g
same,kidney uptake,[4]; 1.5 h,3.07 ± 0.35 %ID/g
same,liver uptake,[4]; 1.5 h,0.31 ± 0.08 %ID/g
same,spleen uptake,[4]; 1.5 h,0.15 ± 0.02 %ID/g
CCCC[C@H](NC(C)=O)C(=O)N[C@@H](CC(=O)O)C(=O)N[C@@H](Cc1c[nH]cn1)C(=O)N[C@H](Cc1ccccc1)C(=O)N[C@@H](CCCNC(=N)N)C(=O)N[C@@H](Cc1c[nH]c2ccccc12)C(=O)NCC(=O)N[C@@H](CCCCNC(=O)[C@H](CCCCNC(=O)CCCc1ccc(I)cc1)NC(=O)CN1CCN(CC(=O)O)CCN(CC(=O)O)CCN(CC(=O)O)CC1)C(N)=O [[^68Ga]Ga-DOTA-IPB-NAPamide] [metal not drawn],logP,[3],−2.12
